# Experimental data taken from IntAct's records for PubMed 16249186.
# B1: Protein E7 (Human papillomavirus type 1a), P06465 (parent)
# chain: MVGEMPALKDLVLQLEPSVLDLDLYCYEEVPPDDIEEELVSPQQPYAVVASCAYCEKLVRLTVLADHSAIRQLEELLLRSLNIVCPLCTLQRQ
# B2: Retinoblastoma-associated protein (Homo sapiens), P06400 (parent)
# chain: MPPKTPRKTAATAAAAAAEPPAPPPPPPPEEDPEQDSGPEDLPLVRLEFEETEEPDFTALCQKLKIPDHVRERAWLTWEKVSSVDGVLGGYIQKKKELWGICIFIAAVDLDEMSFTFTELQKNIEISVHKFFNLLKEIDTSTKVDNAMSRLLKKYDVLFALFSKLERTCELIYLTQPSSSISTEINSALVLKVSWITFLLAKGEVLQMEDDLVISFQLMLCVLDYFIKLSPPMLLKEPYKTAVIPINGSPRTPRRGQNRSARIAKQLENDTRIIEVLCKEHECNIDEVKNVYFKNFIPFMNSLGLVTSNGLPEVENLSKRYEEIYLKNKDLDARLFLDHDKTLQTDSIDSFETQRTPRKSNLDEEVNVIPPHTPVRTVMNTIQQLMMILNSASDQPSENLISYFNNCTVNPKESILKRVKDIGYIFKEKFAKAVGQGCVEIGSQRYKLGVRLYYRVMESMLKSEEERLSIQNFSKLLNDNIFHMSLLACALEVVMATYSRSTSQNLDSGTDLSFPWILNVLNLKAFDFYKVIESFIKAEGNLTREMIKHLERCEHRIMESLAWLSDSPLFDLIKQSKDREGPTDHLESACPLNLPLQNNHTAADMYLSPVRSPKKKGSTTRVNSTANAETQATSAFQTQKPLKSTSLSLFYKKVYRLAYLRLNTLCERLLSEHPELEHIIWTLFQHTLQNEYELMRDRHLDQIMMCSMYGICKVKNIDLKFKIIVTAYKDLPHAVQETFKRVLIKEEEYDSIIVFYNSVFMQRLKTNILQYASTRPPTLSPIPHIPRSPYKFPSSPLRIPGGNIYISPLKSPYKISEGLPTPTKMTPRSRILVSIGESFGTSEKFQKINQMVCNSDRVLKRSAEGSNPPKPLKKLRFDIEGSDEADGSKHLPGESKFQQKLAEMTSTRTRMQKQKMNDSMDTSNKEEK
# partner: B1 chain
# B3: Protein E7 (Human papillomavirus type 1a), P06465 (parent)
# chain: B1 chain
# partner: B2 chain
# Variants of: B1
# Conditions: with e2f3_human E2F3, O00716
# Chain of e2f3_human E2F3, O00716 (O00716 whole entry): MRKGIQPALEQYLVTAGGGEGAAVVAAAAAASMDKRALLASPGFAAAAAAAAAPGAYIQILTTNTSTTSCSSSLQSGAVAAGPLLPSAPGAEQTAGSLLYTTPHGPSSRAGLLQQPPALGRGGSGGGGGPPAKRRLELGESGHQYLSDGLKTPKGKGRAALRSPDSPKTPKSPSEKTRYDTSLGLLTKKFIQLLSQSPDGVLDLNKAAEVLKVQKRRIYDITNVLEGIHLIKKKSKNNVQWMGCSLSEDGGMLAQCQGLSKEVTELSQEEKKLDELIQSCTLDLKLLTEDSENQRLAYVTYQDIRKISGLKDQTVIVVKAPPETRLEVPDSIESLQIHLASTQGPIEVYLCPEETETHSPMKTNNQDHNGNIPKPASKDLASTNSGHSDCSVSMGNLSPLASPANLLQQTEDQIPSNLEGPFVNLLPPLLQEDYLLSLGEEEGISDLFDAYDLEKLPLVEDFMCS
row,Variant,effect of a mutation on the interaction
1,MVGEMPALKDLVLQLEPSVLDLDLYCYEEVPPDDIEEELVSPQQPYAVVASCAYCEKLVELTVLADHSAIRQLEELLLRSLNIVCPLCTLQRQ [R60E],decreasing interaction
2,MVGEMPALKDLVLQLEPSVLDLDLYCYEEVPPDDIEEELVSPQQPYAVVASCAYCEKLVRETVLADHSAIRQLEELLLRSLNIVCPLCTLQRQ [L61E],decreasing interaction

# Variants of: B2
# Conditions: with ve7_hpv1 E7, P06465
row,Variant,effect of a mutation on the interaction
1,K810E;K814E;K824E,disrupting interaction

# Variants of: B3
# Conditions: with rb_human RB1, P06400
row,Variant,effect of a mutation on the interaction
1,MVGEMPALKDLVLQLEPSVLDLDLYCYEEVPPDDIEEELVSPQQPYAVVASCAYCEKLVRLTVLADHSAIRQLRRLLLRSLNIVCPLCTLQRQ [E74R;E75R],decreasing interaction
